From the nanobody polyreactivity screen of Harvey et al. (2022)

Test: yeast display, Sf9 membrane polyspecificity reagent, FACS + sequencing; frameworks hold sequencing errors
Procedure, shortened: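 Polyreactivity labels are assigned by the sorting gate from which each nanobody was recovered. The gates were low and high (top ~1%), set on anti-HA fluorescence for expression and streptavidin fluorescence for reagent binding. Before sorting, galactose-induced (36–48 hours) yeast display cells were stained for 1 hour at 4 °C with 10% biotinylated, detergent-solubilized Sf9 membrane reagent.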

Sequence | polyreactivity (PSR sort gate)
QVQLVESVGGLVQAGGSLRLSCAASGSTFPFYAMGWYRQAPGKERELVAAITSGGSTYADSVKGRFTISRDNAKNTVYLQMNSLKPEDTAVYYCAASWPRWWRFGYWGQGTQVTVSS | low polyreactivity
QVQLVESVGGLVQAGGSLRLSCAASGSTFTYNDLGWYRQAPGKERELVARITFSSGRTYYADSVKGRFTISRDNAKNTVYLQMNSLTPEDTAVYDCARQWYWPPGYYIGQGYEYWGQGTQVTVSS | low polyreactivity
QVQLVESVGGLVQAGGSLRLSCAASGSTIQGNSMGWYRQAHGKERELVAAISRSGGSTYADSVKGRFTISRDNAKNTVYLEMHSLKPEDTAVFYCAAYSGVGYLWFDYWGQGTQVTVSS | low polyreactivity
QVQLVESVGGLVQAGGSLRLSCAASGSTLSAYVMGWYRQAPGKERELVAAITRGGNTYYADSVKGRFTISRDNAKNTVYLQMNSLKPEDTAVYYCAARTYVSYCYYTLNYWGQGTQVTVSS | high polyreactivity
QVQLVESVGGLVQAGGSLRLSCAASGYNFWSNTMGWYRQAPGKERELVAAISQSTASTYYADSVKGRFTISRDNAKNTVYLQMNSLKPEDTAVYYCAAYYNFGDYEYDYWGQGTQVTVSS | low polyreactivity
QVQLVESVGGLVQAGGSLRLSCADSGLTFVDYAMGWYRQAPGKERELVAAITSSGGSITYYADSVKGRFTISRDNAKNTVYLQMKSLKPEDTAVYYCNADYGIYTDSFRGPDYESRGQGTQVTVSS | low polyreactivity
QVQLVESVGGLVQAGGSLRLSCDASGRIFVKYAMGGSRQAPGKERELVASITSGGRTNYADSVKGRFTISRDNAKNTVYLQMNSLKPEDTAVYYCAADARQSRYNYWGQGTQVTVSS | high polyreactivity
QVQLVESVGGLVQAGGSLRLSCSASGLIFYDYDMGWYRQAPGKERELVAAISNDASTYYAHSVKGRFTISRDNAKNTVYFQMNSLKTEDTAVYFCAAEPYVFGLSSKPFWYNYWGQGTQVTVSS | low polyreactivity
QVQLVESVGGLVQAGGSLRLSSASSGRIFWDYAIGCYRQAPGKERELVASISTDGSTYYADSVKGRFTISRDNAKNTVYLQMNSLKPEDTEVYFCAVRGLYRYIRWGYPSYYYWGLGTQVTVSS | low polyreactivity
QVQLVESVGGLVQAGGSLRLTCAASVFTFGYYAMGWYRQAPGKERELVAAITWSGGRTYYADSVKGRFTISRDNAKYTVYLQMNSLKPEDTAVYYCAVETLWQGSEYWGQGTQVTVSS | low polyreactivity
QVQLVESVGGLVQAGGSLSLSCAASGRMLVRNAMGWYRQAAGKERELVAVIRWSGGRTSYADSVKGRFTISRDNAKNTVYLQMNSLKPEDTAVYYCNKGGSYPTSNYKSYWVGVDYCGQGTQVTVSS | low polyreactivity
QVQLVESVGGLVQAGGSLSLSCAASGSIFIYNARGWYRQAPGKERELVATISSGGSTTYADSVKGRFTISRDNAKNTVYLQMNSLKPEDTAVYYCATYDPPDQYFYLGYYYWGANDYWGQGTQVTVSS | low polyreactivity
QVQLVESVGGLVQAGGSLSLTCAASARTLNIYAMGWNRAAPGKERELVAAISKRGGTTYYADSVKGRFTISRDNAKNTVYLQMNSLKPEDTAVYYCNAAVRGVGELDYWGQGTQVTVSS | high polyreactivity
QVQLVESVGGLVQAGVSLRLSCAASGITFYGYAMGWYRQAPGKERELVATSTSGGSTYYADSVKGRFTISRDNAKNTVYLQMNSLKPVDTAVYYCAASRWYRRTRYGYWGQGTQLTVSS | high polyreactivity
QVQLVESVGGLVQEGGSLRLISAASGSIFGSNAMGWYRQAPGKEREMFAAISKSGGSTYYADSVKGRFTISRDNAKNTVYLQMNSLKPEDTAVFYCNPRWWVVTFYGRYEGDYWGQGTQVTVSS | low polyreactivity
QVQLVESVGGLVQEGGSLRLRCAASGSTFNKYTMGWYRQAPGKERELVAAISLRGGSTYYADSVKGRFTISRDNAKNTVYLQMNSLKPEDTAVYYCNADATHDWLRVDTYEYWGHGTQVTVSS | low polyreactivity
QVQLVESVGGLVQGGGSLRLSCAASGINFYRYALGWYRQAPGKERELVAAINRSGDSTYYADSVKGRFTISRDNAKNTVYLQMNSLKPEDTAVYSCAAQHSIYRNPGLDDYWGQGNQVTVSS | high polyreactivity
QVQLVESVGRLVQAGGSLRLSCDASGSIFYYAMGWYRQAPGKERELVAAITWRGGRTYYADSVKGRFTITRDNEKNTVYLQLNSLKPEDTAVYNCNAVAPCKYNHWGQGTQVTVSS | high polyreactivity
QVQLVESVGVLVQAGGSLRLSCAASGITFSSYAMGWYRQAPGKERELVAAITRTGGRTYYADSVKGRFTISRDNAKNTVYLQMNRLKPEDTAVYYCAAYYIAYYYWGQGTQVTVSS | high polyreactivity
QVQLVESVRGFDQAGVSLRLSCAASGSIFYHNAKGLYRQATVTERELVGAITSDGSTYYADSVKGRFTISRDNGKNTVYLLMNSLKPEDTAVFYCAAEYYGHRYDYLGQGTQVTVSS | low polyreactivity
QVQLVESVVGLVQAGGSLLLSCDASGGIFLRYAMGSYRQAPGKERELVARISNRGGSTYYADSVKGRFTISRDYAKNTVYLQMNSLKPEDTAVYYCAADRWSSSRGDYWGQGTQVTVSS | low polyreactivity
QVQLVESVVGLVQAGGSLRLSCAASGSTFYTYAMGWYRQAPGKERELVAAISYRGGSTYYADSVKGRFTISRDNAKNTVDLQMNSLKPEDTAVFYCNVDGVVVGNKRGGYDYWGQGTQVTVSS | low polyreactivity

Sequence | polyreactivity (PSR sort gate)
QVQLVESVVGLVQAGGSLRLSCASSGSIFYYYTMGWYRHAPGKERELVAAITRGGSTNYADSVKGRFTISRDNAKNTGYLQMNSLKPEDTAVYYCAVAWYRGWYRYDYWGQGTQVTVSS | high polyreactivity
QVQLVESVVGLVQAGGSLRLSSAASGGTFDLYAMGWYRQAPGKERELVAAISRRGSSTYYADSVKGRFTISRDNAKNTVYLQMTSLKPEDTAVYFCNNRYYWHGINEYWGQGTQVTVSS | high polyreactivity
QVQLVESVVGLVQEGGSLRLSCAASGRIFAWYAMGWYRQAPGKERELVAAISDSGGSTYYADSVKGRFTISRDNAKNTVYLQMNSLKPEDTAVYYCAAQYVIRITFYATYWDDYWGQGTQVTVSS | low polyreactivity
QVQLVESWAGVVQAGGSLRLSCAASGSIFRNAMGWYRQAPGKERELVAGIRWSYGSTNYADSVKGRFTISRDNAKNSVYLQMNSLKPEDTAVYYCAKGAYYARRMYFWGQGTQVTVSS | low polyreactivity
QVQLVESWGGFVQAGGSLRLSCAASGSIFKGYVMGWYRQAPGKERELVAAISGSGGSTYYADSVKGRFTISRDNAKNTVYIQMNSLKPEDTAVYYCAARYRYWGGSGFKGFDYWGQGTQVTVSS | high polyreactivity
QVQLVESWGGIVQAGGSLRLSCAASGSTFHDYAMGWYRQAPGKERELVAAISRRASRTYYADSVKGRFTISRDNAKNTDFLQMNSLKPEDTAVYDCNTDQSQKTVVYDYWGQGTQVTVSS | high polyreactivity
QVQLVESWGGLFQAGGSLRLSCAASGRIWWNAMGWYIQSPGKERELVAAIRWSGGITRYADSVKGRFTFSGDNAKNTVYLQMKSLKPEDTAVYYCAARRNTVTGYQYYYWGQGTQVSVSS | high polyreactivity
QVQLVESWGGLVKAGGSLRLSCAASGRTIRGYTMGWNRQAPGKQRELVAAISQSGGRTHYADSVKGRFTISRDNAKNTVYLEMKSLKPEDTAVYYCAARGQRERSYPLYDYWGQGTQVTVSS | high polyreactivity
QVQLVESWGGLVLAGGRLRLSCAASGSTFPYNAMGWYRQAPGKERELVAVISQRGGSTYYADSLKGRFTISRDNAKNSVYLQMKSLKPEDTAVYYCAAEYIVTYGYDYWGQGTQVTVSS | high polyreactivity
QVQLVESWGGLVQAGGSLPLRCAASGRTFVQYAMGWYRQAPGKERELVAAISLSGGRTYYADSVKGRFTISRDNAKNTVYLQMNSLKPEDTAVYYFSARDSSRYYWGQGTQVTVSS | high polyreactivity
QVQLVESWGGLVQAGGSLRLSCAASGFNPNAMGWYRQAPGKERELVAAISSNGGSTYYADSVKGRFTISRDNAKKTVYLQMNSLKPEDTAVYYCNRDQWRHTPAEGYYWGQGTQVTVSS | low polyreactivity
QVQLVESWGGLVQAGGSLRLSCAASGFTFYGYAMGWYRQAPGKERELVAAISRRSSSTYYADSVKGRFTISRDNAKNTVYLQMNSLKPEDTAVYYCNTVFQLSGYAAGVDYWGQGTQVTVSS | high polyreactivity
QVQLVESWGGLVQAGGSLRLSCAASGGIFWNYAMGWYRQAPGKERELVATISSGGSTKYADSVKGRFTISRDNAKNTVYLQMNSLKPEDTAVYYCNKVFPNLYIYVVRGLIEMDYWGQGTQVTVSS | low polyreactivity
QVQLVESWGGLVQAGGSLRLSCAASGNIFYFYAMGWYRQAPGKERELVAAITSVGSTKYADSVKGRFTISRDNAKNTVYLEMNCLKPEDTAVYYCAARRWRSYYYWGQGTHVTVSS | high polyreactivity
QVQLVESWGGLVQAGGSLRLSCAASGNTFIEYAMGWYRQAPGKERELVAAINWNGGSTYYADSVKGRFTISRDNAKNTVYFQMNSLTPEDTAVYYCAADTFRLYGALAEYDYWGQGTQVTVSS | low polyreactivity
QVQLVESWGGLVQAGGSLRLSCAASGRIFWKYTMGWYRQAPGKERELVAAIRSGGGSTDYADSVKGRFTISRDNAKNSVYLQMNRLIPEDTAGYYCAAEPSQRYPLSGYVYWGQGTQVTVSS | low polyreactivity
QVQLVESWGGLVQAGGSLRLSCAASGRIFYDYAMGWYRQAPGKERELVAAISKGGGSTYYADSVKGRFTISRDNAKKTVYLQMNSLKAEDTAVYFCAASTSHTTDTRYDYWGQGTQVTVSS | low polyreactivity
QVQLVESWGGLVQAGGSLRLSCAASGRTFFYYAMGWYRQAPWKERELVAAISKSGGRTYYADSVKGRFTISRDNAKNTVYLQMNSLKPEDTAVYYCATLAQWYDRELDYWGQGTQVTVSS | high polyreactivity
QVQLVESWGGLVQAGGSLRLSCAASGRTFYSYVMGWYRKAPGKEREMVAAITSGGSTYYADSVKGRFTISRDNAKNTVYLQMNSLKPEDTAVYYCAADGDYASYDTFWYWAPEYDYWGQGTQVTVSS | low polyreactivity
QVQLVESWGGLVQAGGSLRLSCAASGSIFGENAMGWYREAPRKEMELVAAITSGGSTDYADSVKGRFTISRDNAKNTVYLQMNSPKVEDTAVYYCAASGRVGPGYCYDSWGQGTQVTVSS | low polyreactivity
QVQLVESWGGLVQAGGSLRLSCAASGSIFPWYAMGWYREAPGKERELVAAISKSGAGTYYADSVKGRFTISRDNAKNTVYLQMNSLKPEDTAVYYCNAVYRKTSYGYWGQGTQVTVSS | high polyreactivity
